Results as given in US20060034833A1 (published 2006).

B1: mouse IFN-gamma (ligand, UniProt P01580 23-155, looked up)
chain: HGTVIESLESLNNYFNSSGIDVEEKSLFLDIWRNWQKDGDMKILQSQIISFYLRLFEVLKDNQAISNNISVIESHLITTFFSNSKAKKDAFMSIAKFEVNNPQVQRQAFNELIRVVHQLLPESSLRKRKRSRC
notes: Used biotinylated (biotinamidocaproic acid 3-sulfo N-hydroxysuccinimide ester) in the assays; also called mouse IFN-γ; biotinylated mouse IFN-γ

Key:
mouse IFN-gamma = target: B1; experiment: ELISA screening of selected clones on captured biotinylated mouse IFN-γ (Examples 7 and 8)
Description: To examine the clones selected using biotinylated human or mouse IFN-γ, wells were coated with neutravidine at a concentration of 2 μg/ml overnight at 4° C. Plates were washed 5 times with PBS/0.05% Tween-20. Wells were blocked with 1% caseine for 2 hrs at room temperature. Biotinylated mouse or human IFN-γ at a concentrabon of 1 μg/ml was captured overnight at 4° C. Plates were washed 5 times with PBS/0.05% Tween-20. Culture supernatant (⅓ diluted) was applied to the wells. Detection was performed using anti-c-myc antibody, followed by anti-mouse-HRP and ABTS/H₂O₂ as substrate. Plates were read at 405 nm after 30 minutes incubation at room temperature.

human IFN-gamma [1] = target: T1, human IFN-gamma (human, UniProt P01579 24-166); experiment: competition ELISA: VHH pre-incubated with biotinylated human IFN-γ, coated human IFN-γ receptor
T1 construct: The cell-based assays used IFN-γ 'expressed in CHO'; also called human IFN-γ; Interferon gamma
T1 sequence (looked up): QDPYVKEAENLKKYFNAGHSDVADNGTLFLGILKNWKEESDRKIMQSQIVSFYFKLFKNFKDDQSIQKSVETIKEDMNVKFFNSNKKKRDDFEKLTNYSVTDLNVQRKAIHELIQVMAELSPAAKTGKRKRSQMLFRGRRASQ
Description: Mouse or human IFN-γ receptor was coated at a concentration of 1-2 μg/ml overnight at 4° C. Plates were washed 5 times with PBS/0.05% Tween-20. Wells were blocked with 1% caseine overnight at 4° C. VHH was pre-incubated with 20 ng biotinylated human or mouse IFN-γ for 30 minutes at room temperature. The mixture was applied to the wells and incubated for 1 hr at room temperature. Detection was performed using Extravidin-AP and pNPP as substrate. Plates were read at 405 nm after 30 minutes incubation at room temperature. Abcam AB 7812 polyclonal antibody was used as a positive control showing a dosis-dependent inhibition of human IFN-γ/IFN-γ receptor as presented in FIG. 7.
As presented in Table 6, a dose-dependent inhibition assay to determine the IC50 was performed for representative clones of each sequence family.

human IFN-gamma [2] = target: T1, human IFN-gamma; experiment: cell-based or functional assay
[3] = target: T2, mouse IFN-γ receptor (IFN-γ R1/Fc) (mouse, UniProt P15261 26-253, limits assumed); experiment: ELISA: biotinylated mouse IFN-γ on coated mouse IFN-γ R1/Fc, Extravidin-AP
T2 construct: Bought Fc fusion, coated on plates; not shown: Fc part of the bought fusion; not described
T2 sequence (looked up): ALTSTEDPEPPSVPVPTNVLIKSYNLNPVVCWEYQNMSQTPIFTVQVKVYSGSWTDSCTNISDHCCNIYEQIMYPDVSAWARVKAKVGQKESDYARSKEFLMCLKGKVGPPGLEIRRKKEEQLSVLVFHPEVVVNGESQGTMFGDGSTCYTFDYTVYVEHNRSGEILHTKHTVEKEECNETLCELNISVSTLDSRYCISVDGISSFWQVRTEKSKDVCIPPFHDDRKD
Description: 96-well microtiter plates were coated with human IFN-γ receptor (IFN-γ R1 (R&D Systems, Cat Nr: 673-IR/CF) or mouse IFN-γ receptor (IFN-γ R1/Fc (R&D Systems, Cat Nr:1026-GR) at 1 μg/ml in PBS overnight at 4° C. Plates were washed 5 times with PBS/0.05% Tween-20. Plates were blocked for 2 hrs at room temperature using PBS+1% Caseine. A dilution serie of biotinylated human or mouse IFN-γ was incubated for 1 hr at room temperature. Plates were washed 5 times with PBS/0.05% Tween-20. Binding was detected using Extravidin-AP and pNPP. Plates were read at 405 nm after 30 minutes incubation at room temperature.

Row | Binder | binding result (mouse IFN-gamma) | IC50 (human IFN-gamma [1]) | IC50 (nM), cell-based inhibition assay (FS4 cells treated with IFN-γ pre-incubated with VHH, EMC virus, MTT) (human IFN-gamma [2]) | binding result [3]
1 | MP6 B1 BR (VHH, Llama VHH selected on mouse IFN-γ) VHH: QVQLQESGGGLVQAGGSLRLSCAASGFTSDDYAIGWFRQAPGKEREGVSCISSSDGVTYYADSVKGRFTISSDNAKNTVYLQMNSLKPEDTAVYYCAADSLPLCFSGSYYHPYEYDYLGQGTQVTVSS | binds | – | – | –
2 | MP3C7SRA (VHH) VHH: QVQLQESGGGLVQAGDSLRLSCAASGRSFSSYGMGWFRQAPGKEHEFVAGIWRSGVSLYYADSVKGRFTISRDDAKMTVSLQMNSLKPEDTAVYYCAAEATFPTWNRGRFADYDYSGQGTQVTVSS | – | > 200 µg/mL | 7500 nM | –
3 | MP3B1SRA (VHH) VHH: QVQLQESGGGLVQPGGSLRLSCAASGFTSSNYAMSWVRQAPGKGLEWVSSINSRTGSITYADSVKGRFTITLDNAKNTLYLQMNSLKPEDTAVYYCASRVDDRVSRGQGTQVTVSS | – | 20 µg/mL | 9000 nM | –
4 | MP4C10SR (VHH) VHH: QVQLQESGGGLVQPGGSLRLSCAASGFTVSNYAMSWVRQPPGKGIEWVSSINNRNDHITYADSVKGRFTIARDNANNILYLQMNSLKPEDTAVYYCASRVDDRVSRGQGTQVTVSS | – | > 200 µg/mL | 200000 nM | –
5 | MP6 D6 BR (VHH, Llama VHH selected on mouse IFN-γ) VHH: QVQLQESGGGLVQAGGSLRLSCAVSGSIFSLLAMGWFRQAPGKERELVASVSTHSNTNYADSVKGRFTISRDNAKNTVYLQMNSLKPEDTAVYYCNAGGRYSARVYWGQGTQVTVSS | binds | – | – | –
6 | MP3F1SRA (VHH) VHH: QVQLQESGGGLVQAGGSLTLSCVASGRTISDYAVGWFRQAPGKEREFVASISWGGGFTAFADSMKGRFTISRDNAKNTVYLQTHTLEPDDTSVYYCASSRRYCTGYRCYATASEFDSWGQGTQVTVSS | – | 8 µg/mL | 9000 nM | –
7 | MP6 B12 BR (VHH, Llama VHH selected on mouse IFN-γ) VHH: QVQLQESGGGLVQAGGSLRLSCAASGFTFDDYDIGWFRQAPGKEREEVSCISNIDGSTYYADSVKGRFTISSDNAKNTAYLQMSSLKPEDTAVYYCAADIYVRCVHGLSPGYWGQGIQVTVSS | binds | – | – | –
8 | MP2F1BR (VHH) VHH: AVQLVESGGGLVQTGDSLRLSCVASGGTFSRYAMGWFRQAPGKEREFVARIGYSGRSISYATSVEGRFAISRDNAKNTVYLQMNSLKPEDTAVYYCASLVSGTLYQADYWGQGTQVTVSS | – | 8 µg/mL | 5000 nM | –
9 | MP3D2BR (VHH) VHH: QVQLQESGGGLVQPGESLRLSCAASRGIFRFNAGGWYRQAPGKQRELVAFIGVDNTTRYIDSVKGRFTISRDNAKTTVYLQMNSLQPEDTAVYYCNKVPYIDWGQGTQVTVSS | – | 4 µg/mL | 9000 nM | –
10 | B1 | – | – | – | binds
11 | MP2F6SR/MP2F6SR (VHH) QVKLEESGGGLVQAGGSLRLSCAASGRTFNNYNMGWFRQAPGKEREFVAAISWNGGSTYYDDSVKGRFTISRDNANNLVYLQMNSLNFEDTAVYYCACAANPYGIPQYRENRYDFWGQGTQVTVSSEPKTPKPQPAAAQVKLEESGGGLVQAGGSLRLSCAASGRTFNNYNMGWFRQAPGKEREFVAAISWNGGSTYYDDSVKGRFTISRDNANNLVYLQMNSLNFEDTAVYYCACAANPYGIPQYRENRYDFWGQGTQVTVSS | – | – | 0.15 nM | –
12 | MP6 B10 BR (VHH, Llama VHH selected on mouse IFN-γ) VHH: QVQLQDSGGGLVQLGGSLRLSCAISGRILGSYAVGWFRQAPGKERQFVAAIGWSYGNTYYADSVKGRFTISRDNAKNTVYLQINSLKPEDTAVYYCAAGDTYLTGRPNEYAYWGQGTQVTVSS | binds | – | – | –
13 | MP3A7SRA (VHH) VHH: QVQLQDSGGGLVQAGGSLRLSCAASGRTFSSFRMGWFRRAPGEEREFVAFVRSNGTSTYYADSVEGRFTITRDNAKNTVYLRMDSLKPEDTAVYYCAAATRDYGGSFDYWGQGTQVIVSS | – | 5 µg/mL | 9000 nM | –
14 | MP3C1SR (VHH) VHH: QVQLQDSGGGLVQAGGSLRLSCAAAGISGSVFSRTPMGWYRQAPGKQRELVAGILSSGATVYAESVKGRFTISRDNAKNTVYLQMNSLSPEDTAEYYCNTYPTWVLSWGQGTQVTVSS | – | > 200 µg/mL | 9000 nM | –
15 | MP6 C11 BR (VHH, Llama VHH selected on mouse IFN-γ) VHH: QVQLQESGGGLVQAGGSLRLSCAASGRTFSTYAMGWFRQAPGKEREFVAGITSSGGYTYYADSVKGRFTISRDNAKNTVYLQMNSLKPEDTAVYYCAAGFRVGIALDLKGRYDYWGQGTQVTVSS | binds | – | – | –
16 | MP2F6SR (VHH) VHH: QVKLEESGGGLVQAGGSLRLSCAASGRTFNNYNMGWFRQAPGKEREFVAAISWNGGSTYYDDSVKGRFTISRDNANNLVYLQMNSLNFEDTAVYYCACAANPYGIPQYRENRYDFWGQGTQVTVSS | – | 1.75 µg/mL | 1500 nM | –
17 | MP6 A8 BR (VHH, Llama VHH selected on mouse IFN-γ) VHH: QVQLQESGGGLVQAGGSLRLSCAASGFTFDDYAIGWFRQAPGKELEGVSMINSGGGSTYYADSVKGRFTISSDNAKNTVYLQMNSLKPEDTAVYYCAADQNARLFRLWVVTGTGPVDNALDAWGQGTLVTVSS | binds | – | – | –
